# Laboratory results as given in the PETadex activity labels (doi:10.1021/acscatal.2c02275).
# Legend:
# pcPET (post-consumer) = assay: Proxy for plastic degradation [Released monomer concentration (HPLC/LC-MS) (MHET+TPA+BHET)]; settings: pH 8; part of the chain shown
# gfPET = assay: Proxy for plastic degradation [Relative activity]; settings: pH 8
Protein,Proxy for plastic degradation (pcPET (post-consumer)),Proxy for plastic degradation (gfPET),Proxy for plastic degradation (gfPET; part of the chain shown)
unnamed (protein) MSNPYQRGPNPTRSALTADGPFSVATYTVSRLSVSGFGGGVIYYPTGTSLTFGGIAMSPGYTADASSLAWLGRRLASHGFVVLVINTNSRFDGPDSRASQLSAALNYLRTSSPSAVRARLDANRLAVAGHSMGGGGTLRIAEQNPSLKAAVPLTPWHTDKTFNTSVPVLIVGAEADTVAPVSQHAIPFYQNLPSTTPKVYVELCNASHIAPNSNNAAISVYTISWMKLWVDNDTRYRQFLCNVNDPALCDFRTNNRHCQL,90 mM,–,–
unnamed (protein) MANPYERGPDPTESSIEAVRGPFAVAQTTVSRLQADGFGGGTIYYPTDTSQGTFGAVAISPGFTAGQESIAWLGPRIASQGFVVITIDTITRLDQPDSRGRQLQAALDHLRTNSVVRNRIDPNRMAVMGHSMGGGGALSAAANNTSLEAAIPLQGWHTRKNWSSVRTPTLVVGAQLDTIAPVSSHSEAFYNSLPSDLDKAYMELRGASHSVSNTPDTTTAKYSIAWLKRFVDDDLRYEQFLCPAPDDFAISEYRSTCPF,–,94%,–
unnamed (protein) MANPYERGPDPTESSIEAVRGPFAVAQTTVSRLQADGFGGGTIYYPTDTSQGTFGAVAISPGFTAGQESIAWLGPRIASQGFVVITIDTITRLDQPDSRGRQLQAALDHLRTNSVVRNRIDPNRMAVMGHSMGGGGALSAAANNTSLEAAIPLQGWHTRKNWSSVRTPTLVVGAQLDTIAPVSSHSEAFYNSLPSDLDKAYMELRGASHNVSNTPDTTTAKYSIAWLKRFVDDDLRYEQFLCPAPDDFAISEYRSTCPF,–,97%,–
unnamed (protein) MANPYERGPDPTESSIEAVRGPFAVAQTTVSRLQADGFGGGTIYYPTDTSQGTFGAVAISPGFTAGQESIAWLGPRIASQGFVVITIDTITRLDQPDSRGRQLQAALDHLRTNSVVRNRIDPNRMAVMGHSMGGGGALSAAANNTSLEAAIPLQGWHTRKNWSSVRTPTLVVGAQLDTIAPVSSHSEAFYNSLPSDLDKAYMELRGASHLVSNTPDTTTAKYSIAWLKRFVDDDLRYEQFLCPAPDDFAISEYRSTCPF,70 mM,–,–
unnamed (protein) MANPYERGPDPTESSIEAVRGPFAVAQTTVSRLQADGFGGGTIYYPTDTSQGTFGAVAISPGFTAGQESIAWLGPRIASQGFVVITIDTITRFDYPDSRGRQLQAALDHLRTNSVVRNRIDPNRMAVMGHSMGGGGALSAAANNTSLEAAIPLQGWHTRKNWSSVRTPTLVVGAQLDTIAPVSSHSEAFYNSLPSDLDKAYMELRGASHLVSNTPDTTTAKYSIAWLKRFVDDDLRYEQFLCPAPDDFAISEYRSTCPF,198 mM,–,100%
unnamed (protein) MANPYERGPDPTESSIEAVRGPFAVAQTTVSRLQADGFGGGTIYYPTDTSQGTFGAVAISPGFTAGQESIAWLGPRIASQGFVVITIDTITRLDQPDSRGRQLQAALDHLRTNSVVRNRIDPNRMAVMGHSMGGGGALSAAANNTSLEAAIPLQGWHTRKNWSSVRTPTLVVGAQLDTWAPVSSHSEAFYNSLPSDLDKAYMELRGASHLVSNTPDTTTAKYSIAWLKRFVDDDLRYEQFLCPAPDDFAISEYRSTCPF,–,23%,–
unnamed (protein) MANPYERGPDPTESSIEAVRGPFAVAQTTVSRLQADGFGGGTIYYPTDTSQGTFGAVAISPGFTAGQESIAWLGPRIASQGFVVITIDTITRLDQPDSRGRQLQAALDHLRTNSVVRNRIDPNRMAVMGHSMGGGGALSAAANNTSLEAAIPLQGWHTRKNWSSVRTPTLVVGAQLDTFAPVSSHSEAFYNSLPSDLDKAYMELRGASHLVSNTPDTTTAKYSIAWLKRFVDDDLRYEQFLCPAPDDFAISEYRSTCPF,–,9%,–
unnamed (protein) MANPYERGPDPTESSIEAVRGPFAVAQTTVSRLQADGFGGGTIYYPTDTSQGTFGAVAISPGFTAGQESIAWLGPRIASQGFVVITIDTITRLDQPDSRGRQLQAALDHLRTNSVVRNRIDPNRMAVMGHSMGGGGALSAAANNTSLEAAIPLQGWHTRKNWSSVRTPTLVVGAQLDTIAPVSSHSEAFYNSLPSDLDKAYMELRGASHWVSNTPDTTTAKYSIAWLKRFVDDDLRYEQFLCPAPDDFAISEYRSTCPF,–,85%,–
unnamed (protein) MANPYERGPDPTESSIEAVRGPFAVAQTTVSRLQADGFGGGTIYYPTDTSQGTFGAVAISPGFTAGQESIAWLGPRIASQGFVVITIDTITRLDQPDSRGRQLQAALDHLRTNSVVRNRIDPNRMAVMGHSMGGGGALSAAANNTSLEAAIPLQGWHTRKNWSSVRTPTLVVGAQLDTIAPVSSHSEAFYNSLPSDLDKAYMELCGASHLVSNTPDTTTAKYSIAWLKRFVDDDLRYEQFLCPAPDDFAICEYRSTCPF,62 mM,–,100%
unnamed (protein) MANPYERGPDPTESSIEAVRGPFAVAQTTVSRLQADGFGGGTIYYPTDTSQGTFGAVAISPGFTAGQESIAWLGPRIASQGFVVITIDTITRLDQPDSRGRQLQAALDHLRTNSVVRNRIDPNRMAVMGHSMGGGGALSAAANNTSLEAAIPLQGWHTRKNWSSVRTPTLVVGAQLDTIAPVSSHSEAFYNSLPSDLDKAYMELRGASHKVSNTPDTTTAKYSIAWLKRFVDDDLRYEQFLCPAPDDFAISEYRSTCPF,–,48%,–
unnamed (protein) MANPYERGPDPTESSIEAVRGPFAVAQTTVSRLQADGFGGGTIYYPTDTSQGTFGAVAISPGFTAGQESIAWLGPRIASQGFVVITIDTITRLDQPDSRGRQLQAALDHLRTNSVVRNRIDPNRMAVMGHSMGGGGALSAAANNTSLEAAIPLQGWHTRKNWSSVRTPTLVVGAQLDTIAPVSSHSEAFYNSLPSDLDKAYMELRGASHYVSNTPDTTTAKYSIAWLKRFVDDDLRYEQFLCPAPDDFAISEYRSTCPF,–,68%,–
unnamed (protein) MANPYERGPDPTESSIEAVRGPFAVAQTTVSRLQADGFGGGTIYYPTDTSQGTFGAVAISPGFTAGQESIAWLGPRIASQGFVVITIDTITRLDQPDSRGRQLQAALDHLRTNSVVRNRIDPNRMAVMGHSMGGGGALSAAANNTSLEAAIPLQGWHTRKNWSSVRTPTLVVGAQLDTIAPVSSHSEAFYNSLPSDLDKAYMELRGASHIVSNTPDTTTAKYSIAWLKRFVDDDLRYEQFLCPAPDDFAISEYRSTCPF,–,54%,–
